Assay [1] deals with T1, extracellular domain of the IL-4Rα (IL-4 binding protein) (UniProt P24394 26-232, limits assumed, biotinylated at Cys-206).
T1 construct: extracellular domain; Immobilised on the streptavidin-coated matrix of the biosensor through biotin at Cys-206; also called IL4BP; IL-4 specific receptor
T1 sequence (looked up): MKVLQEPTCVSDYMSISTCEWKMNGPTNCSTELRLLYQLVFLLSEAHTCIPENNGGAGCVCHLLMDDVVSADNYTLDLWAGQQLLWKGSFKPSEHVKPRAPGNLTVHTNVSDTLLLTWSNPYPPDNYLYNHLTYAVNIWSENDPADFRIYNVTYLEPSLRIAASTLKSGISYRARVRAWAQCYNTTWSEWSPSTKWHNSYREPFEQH
In words: biosensor (BIA2000), IL4BP immobilised on a streptavidin matrix, room temperature.

In assay [2] the target is T1, extracellular domain of the IL-4Rα …. The experiment in a line: biosensor (BIA2000), IL4BP biotinylated at Cys-206 on a streptavidin matrix, 25 C.
Assay [3] has the same target. The assay is described as above. The source holds these as a separate data set.

Read-outs that look alike come from different tables or passages of the source.

B1: Model 1 (peptide)
peptide: Ac-RMKQLEDKVEELLSKNYRLENRVARLEKLVG-NH2
modifications: also: designed to form non-covalent parallel coiled-coil dimer
notes: Synthetic peptide derived from the GCN4 leucine zipper, designed to form a non-covalent parallel coiled-coil dimer
As for B1, the binding result in assay [1] is given as “no binding”.

B2: Model 2 (peptide)
peptide: Ac-RMKQLEDKVERLLSRNYRLENEVARLKKLVG-NH2
modifications: not fully specified
notes: as for B1
As a reminder, the Kd is the free concentration of one partner at which half of the binding sites on the other are occupied at equilibrium, for simple one-to-one binding. Low readings indicate tighter binding, high ones weaker binding. For B2, the Kd in assay [2] and in assay [3] was 4.08 mM throughout.

Source of the values: patent US6685932 (EUROPAISCHES LABORATORIUM MOLEKULARBIOLOGIE, dated 2004).
